# From the supplement of paper PMC7125110
# ± gives the standard error. Fewer inactive variants are shown than the library holds.
# B1: glmS ribozyme (parent)
# chain: AUAAAAGCGCCAGAACUACAGAAAUGUAGUUGACGAGGAGGAGGUUUAUCGAAUUUUCGGCGGAUGCCUCCAAA
# Variants of: B1
# Experiment: self-cleavage kobs at 10000 uM GlcN6P; higher = faster cleavage; RNA array
# Settings: with glucosamine-6-phosphate
# Summary of the method: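 Barcoded ribozyme variants were transcribed in situ on sequenced MiSeq chips by E. coli RNA polymerase. At 37 °C, a hybridised Cy3 probe tracked them while glucosamine-6-phosphate (40 μM to 10 mM) in HEPES/KCl/Mg(OAc)2 buffer flowed in and tiles were imaged over ~14 h. Per-tile medians of signals normalised to baseline and to non-cleaving reference variants were fit to one- or two-exponential decays, giving kobs. kcat and KM came from weighted Michaelis–Menten fits across concentrations.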
row,Variant,self-cleavage kobs at 10000 uM GlcN6P [s⁻¹]
1,AUAAAAGCGCCAGAAGUACAGAAAUGUAGUUCACGAGGAGGAUGUUGAUCGAAUUAUCGGCGGAUGCCUCCAAA,< 1e-05
2,AUAAAAGCGCCAGAACUACAGAAAUGUAGUUGACGAGGAGGAGGUUUAUCGAAUUUUCGGCGGGUCACUCCAAA,0.000252 ± 7.2e-05
3,AUAAAAGCGCCAGAACUACAGAAAUGUAGUUGACGAGGAGGAUGUUUAUUGAAUUUUCGGCGAAUGCCUCCAAA,< 1e-05
4,AUAAAAGCGCCAUAAUUACAGAAAUGUAGUUGACGAGGAGGAGGUUUAUCGAUUUUUCGGCUGAUGCCUCCAAA,< 1e-05
5,AUAAAAGCGCCAGUACUACAGAAAUGUAGUUGACGAGGAGGAGGUGUAUCGAGUUUUCGGCGGAUGCCUCCAAA,0.000633 ± 9.6e-05
6,AUAAAAGCGCCAGAACUACAGAAAUGUAGUUGGCGAGGAGGAGGUUUCUCGAAUUUUCGGCGGAUGCCUCCAAA,< 1e-05
7,AUAAAAGCGCCAGAACUACAGAAAUGUAGUUGACGAGGAGAAGGUUUAUCGAAUUUUCGGAGGAUGCGUCCAAA,< 1e-05
8,AUAAAAGCGCCAGAACUACAGAAAUGUAGUUGACGAGGAGGAGGUUUAUCCAAGUUUCGGCGGAUGCCUACAAA,< 1e-05
9,AUAAAAGCGCCAGAACUACAGAAAUGUAGUUGACGAGGCAGAGGUUUAUCGAAUUUUGGGCGGAUGCCUCCAAA,< 1e-05
10,AUAAAAGCGCCAGAACUACAGAAAUGUAGUUGACCAGGAGGAGGUUUUUCGAAUUUUCGGCGGAUGCCUGCAAA,< 1e-05
11,AUAAAAGCGCCAGAACUAAAGAAAUGUAGUUGACGAGGAGGACGUUGAUCGAAUUUUCGGCGGAUGCCUCCAAA,< 1e-05
12,AUAAAAGCGCCAGAACUACAGAAAUGUAGUUGACGAGGAGGAGGUUGAUCGAAUUUUCAGCGGAUGCCUCCAAA,3.68e-05 ± 1.3e-05
13,AUAAAAGCGCCAGAACUACAGAAAUGUAGUUGAAGAGGAGAAGGUUUAUCGAAUUUUCGGCGGAUGCGUCCAAA,< 1e-05
14,AUAAAAGCGCCAGAACUACAGAAAUGUAUUUGACGAGGCAGAGGUUUAUCGAAUUUUCGGCGGAUACCUCCAAA,6.36e-05 ± 1.3e-05
15,AUAAAAGCGCCAGAACUACAGAAAUGUAGUUGACGAGGAGGAGGUUUAUCGAAUUUACGAAGGAUGCCUCCAAA,< 1e-05
16,AUAAAAGCGCCAGAACUACAGAAAUGUAGUUGACAAGGAGGAGGUUUAGCGAAUUUUCGGUGGAUGCCUCCAAA,< 1e-05
17,AUAAAAGCGCCAGAUCUACAGAAAUGUAGUUGACGAGGGGGAGGUUUAUCGAAUUUCCGGCGGAUGCCUCCAAA,6.65e-05 ± 1.8e-05
18,AUAAAAGCGCCAGAACUACAGAAAUGUAGUUGACGAGGAGGAGCUUUAUCGAAUUUUCGGCGGAGGUCUCCAAA,0.000247 ± 8.5e-05
19,AUAAAAGCGCUAGAACUACAGAAAUGUAUUUGACGAGGAUGAGGUUUAUCGAAUUUUCGGCUGAUGCCUCCAAA,< 1e-05

row,Variant,self-cleavage kobs at 10000 uM GlcN6P [s⁻¹]
1,AUAAAACCGCCAGAACUACAGAAAUGUAGUUGACGAGGAGGAGGUUUAAUGAUCUUUCGGCGGAUGCUUCCAAA,< 1e-05
2,AUAAAAGCGCCAGCACUACAGAAAUGUAGUAGACGAGGAGGAGGUUUAUCGAAUUUUCGGCGGAUGCCGCCAAA,5.33e-05 ± 1.5e-05
3,AUAAAAGCGCCAGAACUACAGAAAUGUAGUUGACGAGGACGAUGUUUAUCUAAUUUUCGGCGGAUGCCUCCAAA,< 1e-05
4,AUAAAAGCACCAGAACUACAGAAAUGUAGUUGACGUGGAGGAGGAUUAUCGAAUUUUCGGCGGCUGCCUCCAAA,< 1e-05
5,AUAAAAGCGCCAGAACUACAGAAAUGUAGUUGACGAGUAGGAGGUUUAUGGAAUGUGCGGCGGAUGCCUCCAAA,7.32e-05 ± 2e-05
6,AUAAAAGCGCUAGAACUACAGAAAUGUAGUUGAAGAGGAGGACGUUUAUCGAAUUUUCGGCGGAUGCCUCCAAA,< 1e-05
7,AUAAAAGCGCCAGAACUACAGAAAUGUAGUUGACGAGGAGGACGUUUACCGAAUUUUCGGCGGAUGCCUCCAAA,< 1e-05
8,AUAAAAGCGCCAGAACUACAGAAAUGUAGUUGACGAGGAGGAGUUUUAUCGAAUUUUUGGCUGAUGCAUCCAAA,< 1e-05
9,AUAAAAGCGCUAGAACUACAGAAAUGUAGUUGACGAGGAGGAGGUUUGUUGAAUUUUCGGCGGAUGCCUCUAAA,< 1e-05
10,AUAAAAGCGCUGGUACUACAGAAAUGUAGUUGACGAGGAGGAGGUUUAUCGAAUUUUCGGCGGAUGCCUCCAAA,0.000156 ± 3.3e-05
11,AUAAAAGCGCCAGAAUUACAGAAAUGUAGUUGACGAGGAGGAGGUUUAUCGAAUUUUCGGCCGAUGCCUCCAAA,< 1e-05
12,AUAAAAGCGCCAGAACUACAGAAAUGUAGUUGACGAGGAGGAGGUGUAUCGAAUUUUCGGCGGAUGCUUCUAAA,8.22e-05 ± 1.3e-05
13,AUAAAAGCACCAGAACUACAGAAAUGUAGCUGACUAGGAGGAGGUUUAUCGAAUGUUCGGCGGAUGCCUCCAAA,< 1e-05
14,AUAAAAGCGCCAGAACUACAGAAAUGUAGUUGCCGAGAAGGAGGUUUAUCGAAUUUUAGGCGGAUGCCUCCAAA,< 1e-05
15,AUAAAAGCGCUAGAACUACAGAAAUGUAGUUGACGAGGAGGAGGUUUAUCGAAUUUCCGGCGGAUGCCUCCAAA,5.06e-05 ± 1.6e-05
16,AUAAAAGCGCCAGAACUACAGAAAUGUAGUUGACGCGGAGGAGGUUUAUCGAAUUCUCGGCGGAUGCCUCCAAA,< 1e-05
17,AUAAAAGCGCCAGAACUACAGAAAUGUAGUUGACGCGGUGGAGGUUUAUCGAAUUUUCGGCGGAUGUCUCCAAA,< 1e-05
18,AUAAAAGCGACGGAACUACAGAAAUGUAGUUGACCAGGAGGAGGUUUAUCGAAUUAUCGGCGGAUGCCACCAAA,0.000264 ± 7.7e-05
